Results reported in paper PMC8946000.

How the values were obtained:
[1] = target: CT-MRAP2, C-terminal domain of MRAP2 fused to a poly-his tag (human) (UniProt Q96G30); assay: native gel or EMSA; blue native PAGE of 20 μg purified C-terminal MRAP2 domain, 3% to 16% Bis-Tris gel, 0 °C, anti-His blot; molecular weights only approximate
[2] = target: CT-MRAP2, C-terminal domain of MRAP2 fused to a poly-his tag (human) (UniProt Q96G30); assay: SDS-PAGE; purified His-tagged CT-MRAP2 resolved by SDS-PAGE under denaturing conditions, anti-His blot

## CT-MRAP2, C-terminal domain of MRAP2 fused to a poly-his tag (from UniProt Q96G30 76-205) (domain or fragment)
[1]
  stoichiometry N: 2
[2]
  stoichiometry N: 2
